For this data set, the system named is E. necator. As to the kind of experiment: Leaf disc assay, dry inoculum (settling tower), decrease in disease severity / hyphal growth (Example 2). Conditions: decrease in disease severity (hyphal growth) relative to untreated control, value ± SE; for % decrease =/− SE TP1: time point 1 (untreated control hyphal growth ≥50%).

This note sets out measurements from patent publication US12077763B2, “RNA-based control of powdery mildew” (Greenlight Biosciences, Inc., priority 2021, dated 2024).

B1: GS3358 (nucleic acid)
sense: UUGGUACUAUGGCCAGGGUCAAUUCAAUUCAAUUUUUUUCUAUCAAAUAAAAUUAAAUCAAAAUAGUUUUCAAUCCAAUCUAACCCAAUCUUAAUCUUAAAAUGUAACUUCAAACAUUGUGAUUCAAGUACUAAUCACACGAGAAACUAGCAACGUUUGAUCUCGCUUUUCGAUCUACUUUAGGUACUUGAUGAAAUUUUCAAAGAUAUUUUGUCAUAAAACCAGUCACUAAGCUUCUUUGCUAUAUAAUUGCACUACGCGACGUCAACAGAUGCUCUUUUCACACUCCUAGUUAUUAAAGCAAUUGAAACAUCUUCUAACUAUAUACAACUUGAAUAUAACUCCAGAUUUGAAUAUAUUCUCCACCAAAAUUUAAUUAGGUUUGCAAUAAAUU
antisense: AAUUUAUUGCAAACCUAAUUAAAUUUUGGUGGAGAAUAUAUUCAAAUCUGGAGUUAUAUUCAAGUUGUAUAUAGUUAGAAGAUGUUUCAAUUGCUUUAAUAACUAGGAGUGUGAAAAGAGCAUCUGUUGACGUCGCGUAGUGCAAUUAUAUAGCAAAGAAGCUUAGUGACUGGUUUUAUGACAAAAUAUCUUUGAAAAUUUCAUCAAGUACCUAAAGUAGAUCGAAAAGCGAGAUCAAACGUUGCUAGUUUCUCGUGUGAUUAGUACUUGAAUCACAAUGUUUGAAGUUACAUUUUAAGAUUAAGAUUGGGUUAGAUUGGAUUGAAAACUAUUUUGAUUUAAUUUUAUUUGAUAGAAAAAAAUUGAAUUGAAUUGACCCUGGCCAUAGUACCAA
For the molecule B1, the “% decrease =/− SE TP1” value turned out to be 6 ± 4%.

B2: GS3357 (nucleic acid)
sense: GAUCUGGUCGUGGUUUGCCGAAAAGAUUCUUCAUUCCUCCCGUUAUAAGAACGGUGAGUGAUAGUGAAAAGCUUAAUCCAAGCAAUCCAACGUGUAAUUCCCACAUUCUCCGAUGCCAUAUGGCAGAUCUAGGCGUUGACUUUGUAACCGUCGGUCCAGGAACAAGAACUAAGCAAAUAGCAAAAAUAACUAAUGCCGGAAUUAUAAAAGCAUAUAAUCCAAGCCAUCGUACCGAGACUUUUUCAUGUGUUUUAUAGGGAAAGCUGAUAUCUGGGUUCUCCAGCGAGAAGGGUCUUUUGUUUGGUACCCUCGAUCCAACAAAUAAUCCAAAAAAUGCACCAAAUAUAACUACCAGCCAAUCGACAACAUAUGAAAGUACUAGUUUUAAUGA
antisense: UCAUUAAAACUAGUACUUUCAUAUGUUGUCGAUUGGCUGGUAGUUAUAUUUGGUGCAUUUUUUGGAUUAUUUGUUGGAUCGAGGGUACCAAACAAAAGACCCUUCUCGCUGGAGAACCCAGAUAUCAGCUUUCCCUAUAAAACACAUGAAAAAGUCUCGGUACGAUGGCUUGGAUUAUAUGCUUUUAUAAUUCCGGCAUUAGUUAUUUUUGCUAUUUGCUUAGUUCUUGUUCCUGGACCGACGGUUACAAAGUCAACGCCUAGAUCUGCCAUAUGGCAUCGGAGAAUGUGGGAAUUACACGUUGGAUUGCUUGGAUUAAGCUUUUCACUAUCACUCACCGUUCUUAUAACGGGAGGAAUGAAGAAUCUUUUCGGCAAACCACGACCAGAUC
With B2, the “% decrease =/− SE TP1” value came to 9 ± 6%. Further, the “% decrease =/− SE TP2” value (time point 2) was determined as 7 ± 6%.

B3: GS3359 (nucleic acid)
sense: UUGAGAACAUGACCGAGGCUACUCUAAUCUUAGAUAUGUUUCUCAACAACGAGGGAGCCUUUAACUAUCCUCACAUUUCCUUUCGCAAAAAUUUCCACCCUUUCAACUUCUCUAAAAACAAUUGAUUUGCUUAGACCAUAAGAAUAUUUCAAUAUGAUUAAAACUGAAGCUAAUGGUGAAGGAUUUGAUAUUUCUAUUCCAGAGGUAUCAGUAACUGAGGAACGAAAGCCAUUUGUGCAAAAGGAAGGAUAUCUCAAAUUAAAGCAAGCAGGAACUGCAAGAGCGAAUGAAGCCGCUUCAUACGAAGCUCCACGUGGCACUGUAAAAGGAGAUUACGCAUACCGUCAUCGACAUCAGACAGUACUCCAACAGCAUAUAGCCUUUUUUGAUCAUGAUAA
antisense: UUAUCAUGAUCAAAAAAGGCUAUAUGCUGUUGGAGUACUGUCUGAUGUCGAUGACGGUAUGCGUAAUCUCCUUUUACAGUGCCACGUGGAGCUUCGUAUGAAGCGGCUUCAUUCGCUCUUGCAGUUCCUGCUUGCUUUAAUUUGAGAUAUCCUUCCUUUUGCACAAAUGGCUUUCGUUCCUCAGUUACUGAUACCUCUGGAAUAGAAAUAUCAAAUCCUUCACCAUUAGCUUCAGUUUUAAUCAUAUUGAAAUAUUCUUAUGGUCUAAGCAAAUCAAUUGUUUUUAGAGAAGUUGAAAGGGUGGAAAUUUUUGCGAAAGGAAAUGUGAGGAUAGUUAAAGGCUCCCUCGUUGUUGAGAAACAUAUCUAAGAUUAGAGUAGCCUCGGUCAUGUUCUCAA
With B3, the “% decrease =/− SE TP1” value came to 14 ± 4%.
